B1: Pf1 200-241 (human Pf1 residues 200-241, wild type) (domain or fragment, UniProt Q96QT6 200-241, looked up)
chain: DYVQPQLRRPFELLIAAAMERNPTQFQLPNELTCTTALPGSS
B2: Pf1 200-241 Phe225Ala (domain or fragment, human, UniProt Q96QT6 200-241, looked up)
chain: DYVQPQLRRPFELLIAAAMERNPTQAQLPNELTCTTALPGSS
B3: mSin3A PAH2 (mammalian Sin3A PAH2 domain, residues 295-385) (domain or fragment, UniProt Q60520 295-385, looked up)
chain: SLQNNQPVEFNHAINYVNKIKNRFQGQPDIYKAFLEILHTYQKEQRNAKEAGGNYTPALTEQEVYAQVARLFKNQEDLLSEFGQFLPDANS
B4: Pf1 200-241 Leu212Ala (domain or fragment, human, UniProt Q96QT6 200-241, looked up)
chain: DYVQPQLRRPFEALIAAAMERNPTQFQLPNELTCTTALPGSS
B5: Pf1 200-241 Asn221Glu (domain or fragment, human, UniProt Q96QT6 200-241, looked up)
chain: DYVQPQLRRPFELLIAAAMEREPTQFQLPNELTCTTALPGSS

Key:
[1] = molecular target: mSin3A PAH2 (Mus musculus) (UniProt Q60520); conditions: cited from earlier work
Sequence of mSin3A PAH2 (Mus musculus) (Q60520 297-386): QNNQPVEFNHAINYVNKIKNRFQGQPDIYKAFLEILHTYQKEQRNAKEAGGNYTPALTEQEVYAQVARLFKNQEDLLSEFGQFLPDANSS

[2] = molecular target: Pf1 200-241 (human Pf1 residues 200-241, wild type) (human) (UniProt Q96QT6); assay: ITC
[3] = molecular target: MRG15 MRG (human MRG15 MRG domain, residues 155-323) (human, UniProt Q9UBU8-2 155-323); assay: ITC
Sequence of MRG15 MRG (human MRG15 MRG domain, residues 155-323) (Q9UBU8 194-362): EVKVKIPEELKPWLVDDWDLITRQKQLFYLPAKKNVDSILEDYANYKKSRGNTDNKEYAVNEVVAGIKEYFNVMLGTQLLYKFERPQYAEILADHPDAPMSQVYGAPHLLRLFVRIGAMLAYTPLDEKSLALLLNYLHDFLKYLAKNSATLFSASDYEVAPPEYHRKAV

[4] = molecular target: B3; assay: ITC
[5] = molecular target: B1; assay: ITC
[6] = molecular target: B4; assay: ITC
[7] = molecular target: B2; assay: ITC
[8] = molecular target: B5; assay: ITC

For Mad1/Mxd1 (from UniProt Q05195), the Kd [1] is listed as 0.05 µM.

“mSin3B PAH2 (mammalian Sin3B PAH2 domain) (domain or fragment)” showed a Kd [2] of 2.93 µM, a dH [2] of -40.3 kJ/mol and a stoichiometry N [2] of 1.02.

For B1, the Kd [3] was 0.015 ± 0.003 µM, the dH [3] was -54.8 ± 1.67 kJ/mol and the “stoichiometry N” value [3] was 0.82 ± 0.08. For the same molecule, the Kd [4] was 2.15 ± 0.45 µM.

Molecule B2 has a Kd [4] of 1.65 µM.

With B3 the dH [5] was -27.5 ± 2.01 kJ/mol, the “stoichiometry N” value [5] was 0.99 ± 0.05 and the dH [6] was -18 ± 2.05 kJ/mol. The “stoichiometry N” value [6] was 1 ± 0.11, the dH [7] was -20.8 kJ/mol and the “stoichiometry N” value [7] was 1.12. The dH [8] was -32.1 ± 1.8 kJ/mol and the “stoichiometry N” value [8] was 1.16 ± 0.08.

B4 showed a Kd [4] of 2.66 ± 0.46 µM.

Work on B5 yielded a Kd [4] of 0.63 ± 0.05 µM.

Source: publication PMC3096069 (Journal of molecular biology, 2011)
